# According to the DeepSol protein solubility set:
# Experiment: soluble on expression in E. coli; label from the status in PepcDB or PDB records
row,Sequence,soluble on expression in E. coli
1,MAHHHHHHMMRLLRNNVKNMFLKNCFLVRNTNVKCWRTDRFHNYNMWNTVENNGIRGFSSSSFEEIKKMNMFTAINSAMHNVFESNPNSVLLGEDVAFGGVFRCSLDLLKKYGNMRVFNTPLCEQGIIGFAIGLAENGFTTIAEIQFGDYIFPAFDQIVNDVAKYRYRSGSSFDVGKLTIRSTWGAVGHGGLYHSQSPEAFFAHAAGIKIIVPSDAYKAKGLLLSAINDPNPCLFFEPKILYRSSVCDVPTGPYQLELGKADVVRQGSDVTIVTWGSLVHKMKNAAEILSKKHNIECEVIDLQSIIPWDIETVQKSVEKTGRLLITHEAQLTNGFGAEIAAKIQERCFYNLHTPIKRVCGYDTPFPHVYEPFYMPDAHKVIYEVKKMMK,not soluble
2,MAHHHHHHMMSTASKILAILREAMRKRSLSALIIPSSDPHNSEYVKDEYKCRAYITNFKGSAGTCLITMNEAYLWTDGRYWLEASQSLYPEWTLMKDGHPDVPRLENWIQLNLGSDVLVGMNNHLSTVAEWERRRKMFNLVSVPEMVQPLMPLVENPVSKLYARPEEFCGMRCGEKAAALMEEMERQKCDALVLSALDEVAWLTNLRGSDVPFNPVFYAYGVVRCCSPPKVHLFVDAVMSEEQGPSLELHPYTALESYLRTIPAGTTFLVDEYQTSQWLFTLLESLGMRIKGVACGPAQKLKAVKNAVEIEGFRRCHVRDGVALTRYLAWLHDTVAVKGDTSVTEYSAAQRLEDFRREGEHFVQLSFSTISSVGPNAAIVHYVAPREGSATIVPDQLYLVDSGAQYLDGTTDVTRTVCFREPGDKEREAYTLVLKGNLALHSAVWPTGTSGHSLDVLARAALWKCGLNYAHGTGHGVGSFLNVHEGPQGIGLRPTPTEATLAAGMVMSNEPGYYKDGEFGIRIENLELVVDVATKHSKKGFLTFDTLTMVPLCRELIDVSALTEAERLQVNAYQQTVRETLLPHLRRCNDSCAIAYLEHHTATL,soluble
3,MAHHHHHHMMYSKNDEFNVKKEMDMNLKCDNVNLDIWNTSFLNNETLNEDIFIHIGNKLLKMYYTTNHNIPSETLYSLLYEMKNGYNNVPYHNSIHAAMVTHHCNVLVSNLNTANILRDNELGALFVASLGHDIGHFGRTNIFLKNCCNFLSIIYNDKSILENYHCSYLFNILLKDENNIFKNEDPKCLLALRQQIIELILATDMSKHIKILAQFRIKSIKIKSYIEKNIILCLKMIIKAADLSHNCVDWSEHYQWVKRLVNEFYYEGDELFQMGYKINPLFDRNCHNNFIQIQRTFLKELVYPLIISLKTLDNTSITQDMINNVKRNYSKWTKI,soluble
4,MAHHHHHHMNDETKVFNKCFKKISNCYTLNKKGEKENSTGNQFVLHNCIQTLLSDPIVVLYTDNNYICTGSLTGKVCLYKITIKENKETNTNISYVYNNNNNITDDEKKCINDLNNREELKKENYSKSTIDDVVISKKELNNHNNINNNNNNNNNNNNNSEIIKKYHILCMFRNNSIKSIYIDKNNIYICYESCIDVFCVRSYQFIQKINLDVTNNKQVIYYENYILFNNSKSLFIYDITSNFSSYFYKNFLKNIVIFDFNINYLLCYKNNFGKCHIRVLQIFADAQKCEHELIFCVDFSSKFISHGKFLDDEKIIVAKNGKRLIIFDFKKAIDMYRIRKLKKKILDIHKSVENMLFILVENQIFIFNLSTFVFYKTVQLPKGLFYFKWSYFIRYKNRKIIFSSDKGVYYIDYSIEENV,soluble
5,MAHHHHHHMNEDAMKILNKCSGEKKKGEDLNSCNLLEYYKTKYSSIDIEKAKLILKEQFLIPDFREKQLECLNSIKRFEHVLNIMPTGGGKSLIYQVLPLIIEGISIVISPLISLIQDQIISLRNKKIVAETINSSLNKKENERILDILKSQDLGNLKVLYITPETATSGYFIDILYELYINKKISLISIDEVHCISTWGSDFRKSYRNLNKILDICPYVRTYCCTATATKFVEKDIIRNLNFYIFNKDCDNNINNNNINNNNNIHNNNKYDDHNNNCKVLNIVRTSFNRPNLKYIIIYSDLIKDEKKNSVCDIINEKRNKGKIGIIYCFKRNTCDEISKYLREKGIQALSYHAGLTNNTRKRIQQKWISGKTNILVATIAFGMGIDRKDVSFIIHYNLPKSIENYYQESGRCGRSGHISFCYLFYSKEDVEKLSYIIKTSFAHLDMHDVNIEKKYEKEIYNLECVHNLCINEKCIRSQILSYFGETYPNKNLQTNNTSDHNKQTYKNQTHVEKYNFDTANMYHPSDQNKDNLTDEHFCCSFCYDTKGSRIKIQKVINLYENKKGSNISQFYSKGETHEYNYLYTNNGKHKLYDDDTYYSPSGEEPREKRSTNYYNKYGDKYGDKYDDKYDDKYDEKYDDKYGDRKLQEGIYKLNNKKIKGYIPFQSASSIIPKQIRDKGIIEVMKELEKREEELNEKTKNDQEKHKVNKMNLFKSNSMNVKRKHVFSSFKIPRKI,not soluble
6,MAHHHHHHMNGEVSVERKFSPSQPGYGSEGCRQSMGTTTNNGARRFSATELGRTVGMPYSFDTMRYLKDVMRRREDIHTMRVMPKTHLLAQLVLLEQSGREMLIHQERFCRQQIAHKRDDERSKREEQRLQQKNRDRLEEMKRKQVEELAALKEGVTSFQRQIDAEVKEKLRIVCMLQPRMNVAAAVLAEVKNEASPFLLLPELMEEEKRVAKALKADSRYSKSSADSGAVPHWMRTCVAGSFNVAAILQDAPYRATVDDAVKVTNAFLRKVVVVRDVNDRSVVGWVHVRAGSDPATLATELVRLPAPEELPDQGNIGVVWPKEDFLELSRRAKANNNVETQQLLQSVLGISSASLHCVGLTTHEFSKKEVDTIGSLASV,not soluble
7,MAHHHHHHMNPQTSLTRKQCDFTKLIMAGYDLELNNGSTQDFDVMFHGPNGTAYEGGIWKVHVTLPDDYPFASPSIGFMNKLLHPNVDEASGSVCLDVINQTWTPLYSLVNVFEVFLPQLLTYPNPSDPLNSDAASLLMKDKNIYEEKVKEYVKLYASKDLWEQQKKEKKPSNINGNISPVSELSYVDQDVQDIDLDNL,soluble
8,MAHHHHHHMNTHVISVGSRWVHHEVTQALRQRRGVRVEVNEELQHCDFASRASSVLYCDAHSAEMQRDQASLVLRLQEARQRCGTQPVILMVRMDSDNEVSLERLSWLNLECGVAQQCGLILVWSLDDAVQYLASLAAYAVTSLEFTGAARPYVGDAPLPVLVDALTQTPQVVTRNDVVRIANRKTSVADALMSEASEWEGIAGLDARKRLVCSTSFAHHLCPRSSASTPLYRPPAAAVSLPLIKPQNLISRSQQESPQRGRQRPLASTRP,not soluble
9,MAHHHHHHMNTLGSSGSAGAEAPLVGGPDALTLQTINEQQLIILRQKELVSTLKECVEELGAQLRRAGVKPLEAAQKEDGCKGTLSYVSEMQLRRRVRTLEDENKKLSDLVDELRAEVSAISAQLCAQQLHTQSEKDVWKAKVSSAEAKSVATAHLLEATGKRNQQLVHHLETLRREGEVSAYECTQWRSLATTAVSHLDHANQRYARAQINSIEEDVHRYAVNRLRLVRVAASASLSLDSGTPEETRKIWSRSAQLPKLHPAPQVFQQQQQEPVCSPLHVSYKRPLSQLLPCQPPQPTTSYSLPPPTAEHVNAETHLSPSHCAALAQT,not soluble
10,MAHHHHHHMPGPGLLPDGWFREESTMWPGQAQGLKVEKVLYDQPTEFQHLTVFESDPSGPWGTVMTLDGAIQLTDYDEFVYHEMLANLSLACHHKPERVLVIGGGDGGVVREVLRHKSEKDGVVQSVELVDIDGAVMQQSKKHFPQVACGFANPCVTATVGDGAAFVRNVPDSVYDVIIIDTTDPKGPASELFGADFYTNVLRILRPGGVVCNQGESVWLHRPLIEKMMGFLKKDIGFATVKYAMIYIPTYPCGSIGTLVCAKSADTDVTVPMRPVESLGFADQLKYYSSDMHKAAFVLPRFAAHLNE,soluble
11,MAHHHHHHMPGRPGSAEELYGLVCALQKQQQLTQVDLRAVQRRTEALRQELHCQEALIAEEQAKREELAAKHTPGDAELRLAEAHARGAARASADAAQELRGARRAFLQKCHAQVLSVGKGPTDPRRSGAPVAPSNCTPLSSAADESSSGSLSAVGLGPRREATLMPAAAVRQLLLLLREKLMRCIEVGSTAVPAPFVVASVVAPATEGGSSEQPRDCRPSDEQGAAAKVATSVMSPLTAAKSPHGPPSKSVTDACVRGASDDQSPPREKKSIGFAPECCFERVTAVPAANVNRGTRETWLTEGAPGACGSTAVVPPAANVTLDGDNHPSNACLRNDSRPRTQRFDGHFTVRVASRSATLVAEAAAMGAKRQRASEAAIAAQSSPPKAARADGDKGVSASRAPQGAGVAAAFPPAYTSNRDRLVAPVDLLSPRSAEARRNGSSGSGRRTVWTWTRGTSREP,not soluble
12,MAHHHHHHMPLPPVESGPAAMTRRNFLVEMNRLRVSQYMPTRKQLEEEDLRIATIRQEEKRAKHAEWAESRRKAADSYNAAGTNSGRPLPGSVSRSMRASGKGKPAENTYKLEKEEEAAKKREYNRLYEQEAKHQLAIRQATLKQMHDDEVRQMEALRKVNEEEDRKVAEAHAQAMEEERQYMERLKQSNKRELAARKAEQQAKEARDRQLQELVNENNRHRAEMDERRLKNVTRMLHLQNEQFHREAMMSKKASEAKHYEEVAATEERNRRLTKEEQEAAQRKKEQFRQDFEDCIARDKEFRRTHNYDEPMEVTRQRNELAAQSYRLVLEEERLQNAERRQQYRKDLMDQIMAKQTYRMTHLDEAGI,not soluble
13,MAHHHHHHMPRPEILASCHQTLENCLIESTRNSMDATNKAMLESVAAEMMSVSDGVMRLPLFLAMILPVQLGAATADACTFIPVTRDQSDIYEVFNVAGSSFGSYAAGDVLDMQSVGVYSQLRRRYVLVASSDGTSKTATFKMEDFEGQNVPIRKGRTNIYVNRIKSVVDNGSGSLLHSFTNAAGEQITVTCSLNYNIGQIALSFSKAPDKGTEIAIETEINIEAAPELIPLINHEMKKYTLFPSQFVIAAEHTVQAAYEAQREFGLDLGSLQFRTLKEYLSHEQDMLRLRIMIWRTLATDTFDIALPVNQSFDVWATIIRGKFQTVYRDIIERVKSSGAMGMFAGADAASFFKQLPKDFFQPAEDYIQTPYVHYIGTPFRTTHST,not soluble
14,MAHHHHHHMPVPVLLDNYAYFILSCKTKRCAVVDPADPTLVLNMLEVVRNLTQIDFMITDILTTHKHWDHAGGNMEMRALSQCSSERCRALLSPELNIYGSEVDRPHACNKLIKGSDELVVAGGGAKVVVLSTPGHTGGSVMFLVGDALPKEGEPQRLALFTGDCVFCGGCGALFEATSVDETLETVDIFNNNRTWVHPATGDIIHTDDVLIYVGHEYTERSLDMILSVQRTANQTGEQSAIATSNYCDTVAQARNGARRLRSCVVADDVYMKVTSMETKAPLHLRACTVPSTVTIEKKVNALLSLKRCVLEEFQGKPYASMAVQRAIYTSTKRNDTG,not soluble
15,MAHHHHHHMQPLLRVPRAVHPHVERPLLGYLPPPVSHFSTKRNNCTGYDHPRGAPPQLNKTYHSQANFRDTKMEFCQVDLDEFCYKQFDSTKKSCSFIPYDKNEFLDKVNELIRQKKIKVVPGYAGFCKHIFVENFTEATVETIEINNKNRDLIKTDYISRRDNELPVLIRWISKKDVKDIIKAKYLDLILYSREQIEKENKETKTVPNRKSNCLYSIICIKPQNVDYELPMTPITMLRNTLISEGGSGINLNRDKYLESVKYWRHHVSIIDN,soluble
